Measurements from EP2970447B1 (Eli Lilly and Company, dated 2018).

Tests used:
Experiment in all cases: SPR (Biacore 2000), antibody captured on Protein A, chemokine in solution, 25°C
human ENA-78 (CXCL5) = target: T1, human ENA-78 (CXCL5) (human, UniProt P42830 41-114)
T1 construct: also called human CXCL5 (ENA-78)
T1 sequence: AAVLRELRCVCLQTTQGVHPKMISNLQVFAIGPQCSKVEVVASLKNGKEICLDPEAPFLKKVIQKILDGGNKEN

human Gro-gamma (CXCL3) = target: T2, human Gro-gamma (CXCL3) (human, UniProt P19876 35-107)
T2 construct: also called human CXCL3 (Gro gamma)
T2 sequence: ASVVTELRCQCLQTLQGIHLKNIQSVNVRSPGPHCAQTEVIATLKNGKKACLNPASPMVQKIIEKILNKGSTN

human IL-8 (CXCL8) = target: T3, human IL-8 (CXCL8) (human, UniProt P10145 28-99)
T3 construct: also called human CXCL8 (IL-8); wild type human CXCL8
T3 sequence: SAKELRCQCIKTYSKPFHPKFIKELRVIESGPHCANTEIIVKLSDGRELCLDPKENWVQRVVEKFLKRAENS

human GCP-2 (CXCL6) = target: T4, human GCP-2 (CXCL6) (human, UniProt P80162 40-114)
T4 construct: also called human CXCL6 (GCP-2)
T4 sequence: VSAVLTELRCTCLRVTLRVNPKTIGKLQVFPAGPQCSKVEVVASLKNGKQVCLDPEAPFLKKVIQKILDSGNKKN

human NAP-2 (CXCL7) = target: T5, human NAP-2 (CXCL7) (human, UniProt P02775 59-128)
T5 construct: also called human CXCL7 (NAP-2)
T5 sequence: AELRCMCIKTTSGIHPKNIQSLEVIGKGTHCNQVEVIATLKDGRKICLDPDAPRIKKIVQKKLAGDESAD

human Gro-alpha (CXCL1) = target: T6, human Gro-alpha (CXCL1) (human, UniProt P09341 35-107)
T6 construct: also called human CXCL1(Gro alpha)
T6 sequence: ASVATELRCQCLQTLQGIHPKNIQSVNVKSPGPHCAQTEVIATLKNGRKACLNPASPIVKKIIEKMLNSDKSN

koff (human ENA-78 (CXCL5)): 1.51e-05 s⁻¹
koff (human Gro-gamma (CXCL3)): 1.76e-05 s⁻¹
koff (human IL-8 (CXCL8)): 1.24e-05 s⁻¹
koff (human GCP-2 (CXCL6)): 6.11e-05 s⁻¹
koff (human NAP-2 (CXCL7)): 2.18e-05 s⁻¹
koff (human Gro-alpha (CXCL1)): 1.53e-05 s⁻¹
B1: Antibody 2 (antibody, human IgG4 S228P, kappa, V domains shown)
VH: QVQLVQSGAEVKKPGASVKVSCKASGYEFTSYWIHWVRQAPGQGLEWMGNISPNSGSANYNEKFKSRVTMTRDTSTSTVYMELSSLRSEDTAVYYCAREGPYSYYPSRQYYGSDLWGQGTLVTVSS
VL: EIVLTQSPATLSLSPGERATLSCRASQSISNNLHWYQQKPGQAPRLLIYYTSRSVSGIPARFSGSGSGTDFTLTISSLEPEDFAVYYCGQNNEWPEVFGGGTKVEIKR
notes: Full-length antibody expressed in NS0 cells
